Reference: patent publication US20190375821A1 (IBENTRUS, published 2019)

Legend:
[1] = biological target: T1, NRP1 (UniProt O14786-2 22-644, limits assumed); assay: ELISA, VEGF165
T1 construct: Control 'natural receptor'; also called neuropilin-1; neuropilin 1

[2] = biological target: T2, NRP2 (UniProt O60462 23-864, limits assumed); assay: ELISA, VEGF165
T2 construct: Control 'natural receptor'
T2 sequence (O60462 23-864 limits assumed): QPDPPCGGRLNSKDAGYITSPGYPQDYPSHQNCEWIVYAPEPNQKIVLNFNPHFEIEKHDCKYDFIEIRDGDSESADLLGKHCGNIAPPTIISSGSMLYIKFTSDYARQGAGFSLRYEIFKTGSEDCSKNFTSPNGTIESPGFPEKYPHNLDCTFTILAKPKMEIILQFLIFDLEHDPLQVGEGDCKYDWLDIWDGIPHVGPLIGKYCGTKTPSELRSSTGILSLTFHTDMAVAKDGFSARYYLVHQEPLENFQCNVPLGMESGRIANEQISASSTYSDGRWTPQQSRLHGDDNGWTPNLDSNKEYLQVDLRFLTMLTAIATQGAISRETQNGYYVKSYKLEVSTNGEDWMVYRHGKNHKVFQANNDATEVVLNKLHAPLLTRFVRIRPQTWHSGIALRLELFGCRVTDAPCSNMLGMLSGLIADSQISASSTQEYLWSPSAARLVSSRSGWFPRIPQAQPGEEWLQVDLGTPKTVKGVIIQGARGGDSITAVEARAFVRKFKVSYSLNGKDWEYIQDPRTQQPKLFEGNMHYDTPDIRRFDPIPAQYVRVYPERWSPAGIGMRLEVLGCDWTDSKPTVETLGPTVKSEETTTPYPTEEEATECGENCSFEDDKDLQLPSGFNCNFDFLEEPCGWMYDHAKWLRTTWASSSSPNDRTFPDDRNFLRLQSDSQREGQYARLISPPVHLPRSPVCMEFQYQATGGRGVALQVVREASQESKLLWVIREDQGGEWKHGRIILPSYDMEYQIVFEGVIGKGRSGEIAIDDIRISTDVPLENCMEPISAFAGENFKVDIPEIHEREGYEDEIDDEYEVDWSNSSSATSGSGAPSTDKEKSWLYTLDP

B1: VEGF165 (ligand, UniProt P15692-4 27-191, looked up)
chain: APMAEGGGQNHHEVVKFMDVYQRSYCHPIETLVDIFQEYPDEIEYIFKPSCVPLMRCGGCCNDEGLECVPTEESNITMQIMRIKPHQGQHIGEMSFLQHNKCECRPKKDRARQENPCGPCSERRKHLFVQDPQTCKCSCKNTDSRCKARQLELNERTCRCDKPRR
notes: also called VEGFA
Work on B1 yielded a Kd [1] of 0.312 nM and a Kd [2] of 8 nM.
